One substance from PMC6078998 can be followed below.

The target in assay [1] is recombinant human HIRA(661–1017) (human) (UniProt P54198). Briefly: AUC; sedimentation velocity, c(S) model in SEDFIT, 141,995×g; buffer with 300 mM NaCl, and also with 150 mM NaCl with consistent values.
The target is the same in assay [2]. As to the kind of experiment: AUC; sedimentation equilibrium of the HIRA(661–1017)–CABIN1 FL complex isolated from a size-exclusion peak, slightly lower rotor speeds; 4 °C, 20 mM Tris pH 8.0, 300 mM NaCl, 1 mM TCEP; SEDPHAT ABBB model (A the HIRA trimer, B a CABIN1 monomer), apparent constants.

Chain of recombinant human HIRA(661–1017) (human) (P54198 661-1017): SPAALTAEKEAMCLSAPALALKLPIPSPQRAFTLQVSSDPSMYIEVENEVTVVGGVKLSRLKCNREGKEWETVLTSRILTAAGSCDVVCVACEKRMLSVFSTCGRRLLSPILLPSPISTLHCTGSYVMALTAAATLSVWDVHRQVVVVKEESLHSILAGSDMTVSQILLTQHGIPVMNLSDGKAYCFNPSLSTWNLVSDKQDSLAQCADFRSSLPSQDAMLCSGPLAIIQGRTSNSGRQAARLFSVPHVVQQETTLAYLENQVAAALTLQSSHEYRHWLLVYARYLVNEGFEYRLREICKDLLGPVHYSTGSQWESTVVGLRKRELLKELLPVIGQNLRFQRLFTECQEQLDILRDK
Chain of CABIN1 full length (FL), recombinant, Q9Y6J0 1-2220 (natural protein) (Q9Y6J0 whole entry): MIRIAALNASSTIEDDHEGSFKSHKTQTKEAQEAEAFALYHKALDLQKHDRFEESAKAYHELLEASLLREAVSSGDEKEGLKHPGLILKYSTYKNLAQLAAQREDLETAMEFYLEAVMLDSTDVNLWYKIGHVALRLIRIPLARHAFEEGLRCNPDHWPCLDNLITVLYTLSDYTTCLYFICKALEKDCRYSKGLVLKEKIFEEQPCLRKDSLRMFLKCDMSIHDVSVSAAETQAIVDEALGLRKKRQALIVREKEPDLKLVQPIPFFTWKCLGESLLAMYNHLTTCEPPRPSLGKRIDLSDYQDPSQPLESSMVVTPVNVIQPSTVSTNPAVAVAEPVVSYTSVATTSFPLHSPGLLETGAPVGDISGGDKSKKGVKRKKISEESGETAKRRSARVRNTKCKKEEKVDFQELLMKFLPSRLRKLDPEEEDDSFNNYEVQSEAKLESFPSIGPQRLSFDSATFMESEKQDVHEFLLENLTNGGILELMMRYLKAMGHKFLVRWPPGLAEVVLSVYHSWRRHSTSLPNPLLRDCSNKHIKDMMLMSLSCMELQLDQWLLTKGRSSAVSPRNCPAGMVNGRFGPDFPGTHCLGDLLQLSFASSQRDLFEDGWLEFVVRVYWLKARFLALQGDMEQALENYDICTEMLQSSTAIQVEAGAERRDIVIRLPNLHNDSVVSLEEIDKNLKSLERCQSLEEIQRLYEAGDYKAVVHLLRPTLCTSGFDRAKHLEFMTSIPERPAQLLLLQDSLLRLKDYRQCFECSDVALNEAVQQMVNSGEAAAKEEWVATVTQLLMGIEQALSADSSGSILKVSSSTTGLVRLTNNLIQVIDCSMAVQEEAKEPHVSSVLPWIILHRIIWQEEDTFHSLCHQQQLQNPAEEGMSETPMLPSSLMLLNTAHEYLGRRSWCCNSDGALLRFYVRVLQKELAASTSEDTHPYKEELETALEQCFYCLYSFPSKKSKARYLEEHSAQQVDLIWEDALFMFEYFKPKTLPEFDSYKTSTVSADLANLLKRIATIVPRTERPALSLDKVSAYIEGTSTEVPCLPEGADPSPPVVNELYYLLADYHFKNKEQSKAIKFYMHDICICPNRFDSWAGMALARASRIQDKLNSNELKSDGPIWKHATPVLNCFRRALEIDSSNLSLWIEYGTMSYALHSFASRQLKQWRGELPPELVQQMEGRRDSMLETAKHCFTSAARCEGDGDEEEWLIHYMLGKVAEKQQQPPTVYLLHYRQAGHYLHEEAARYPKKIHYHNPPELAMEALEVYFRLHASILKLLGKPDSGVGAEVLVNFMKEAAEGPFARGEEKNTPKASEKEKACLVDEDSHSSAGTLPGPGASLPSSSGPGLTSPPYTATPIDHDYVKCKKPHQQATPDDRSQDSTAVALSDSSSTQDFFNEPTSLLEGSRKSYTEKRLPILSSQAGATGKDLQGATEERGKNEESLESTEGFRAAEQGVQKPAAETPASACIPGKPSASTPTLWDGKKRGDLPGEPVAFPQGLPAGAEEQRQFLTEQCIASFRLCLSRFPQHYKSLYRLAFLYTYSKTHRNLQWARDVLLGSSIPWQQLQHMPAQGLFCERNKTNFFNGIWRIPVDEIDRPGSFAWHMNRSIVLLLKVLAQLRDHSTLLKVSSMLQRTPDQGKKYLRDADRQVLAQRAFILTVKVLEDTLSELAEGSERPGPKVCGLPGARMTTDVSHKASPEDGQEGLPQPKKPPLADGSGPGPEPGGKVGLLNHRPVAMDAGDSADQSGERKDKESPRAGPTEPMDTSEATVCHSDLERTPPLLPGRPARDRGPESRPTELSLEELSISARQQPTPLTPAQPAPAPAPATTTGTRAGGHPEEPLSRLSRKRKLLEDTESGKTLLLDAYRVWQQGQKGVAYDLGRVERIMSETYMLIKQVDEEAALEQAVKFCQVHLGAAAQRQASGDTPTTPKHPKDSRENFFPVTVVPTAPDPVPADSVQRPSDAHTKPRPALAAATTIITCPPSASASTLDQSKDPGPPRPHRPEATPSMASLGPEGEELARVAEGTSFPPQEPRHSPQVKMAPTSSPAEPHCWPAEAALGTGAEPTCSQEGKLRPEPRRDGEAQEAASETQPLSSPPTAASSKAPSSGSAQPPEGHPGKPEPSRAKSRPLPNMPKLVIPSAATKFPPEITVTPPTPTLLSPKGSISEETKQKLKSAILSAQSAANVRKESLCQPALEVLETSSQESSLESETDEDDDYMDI

Consider “CABIN1 full length (FL), recombinant, Q9Y6J0 1-2220 (natural protein)”, for which the stoichiometry N (CABIN1 per HIRA trimer) in assay [1] was 2. For the same substance, in assay [2], the Kd, third binding event came to 10 µM; the apparent Kd, first two binding events is less than 0.001 µM; the stoichiometry N (CABIN1 per HIRA trimer) came out at 2.
